Measurements as given in patent US20250277196A1, “EPSPS MUTANTS AND METHOD OF ITS USES” (CROPEDIT BIOTECHNOLOGY INC., priority 2021, published 2025).
“And” between values parts separate entries of the source, which are not always exact repeats. Equal values may be shown once.

B1: LuGPV (protein)
DNA: MTVPEEIVLQPIKDISGIVTLPGSKSLSNRILLLAALSEGKTVVDNLLNSDDVHYMLGALKTLGLNVEHSSEQKRAIVEGRGGVFPVGKLGKNDIELFLGNAATAMRSLTAAVTAAGGNSSYILDGVPRMRERPIGDLVVGLKQLGADVSCSSTSCPPVHVNAKGGLPGGKVKLSGSISSQYLTALLMAAPLALGDVEIEIVDKLISVPYVDMTLKLMERFGVAVEHSGSWDRFFVKGGQKYKSPGNAYVEGDASSASYFLAGAAITGGTITVEGCGTSSLQGDVKFAEVLEKMGAKVTWTETSVTVTGPPRDASGKKHLRAVDVNMNKMPDAAMTLAVVALYADGPTAIRDVASWRVKETERMIAVCTELRKLGATVEEGPDYCIITPPEKLSIAEIDTYDDHRMAMAFSLAACADVPVTIRDPGCTKKTFPDYFEVLERYTKH
modifications: This sequence is synthesized in lab.
B2: OsGAPS (protein)
chain: MAAKAEEIVLQPIREISGAVQLPGSKSLSNRILLLSALSEGTTVVDNLLNSEDVHYMLEALKALGLSVEADKVAKRAVVVGCGGKFPVEKDAKEEVQLFLGNAATAMRSLTAAVTAAGGNATYVLDGVPRMRERPIGDLVVGLKQLGADVDCFLGTECPPVRVKGIGGLPGGKVKLSGSISSQYLSALLMAAPLALGDVEIEIIDKLISIPYVEMTLRLMERFGVKAEHSDSWDRFYIKGGQKYKSPGNAYVEGDASSASYFLAGAAITGGTVTVQGCGTTSLQGDVKFAEVLEMMGAKVTWTDTSVTVTGPPREPYGKKHLKAVDVNMNKMPDVAMTLAVVALFADGPTAIRDVASWRVKETERMVAIRTELTKLGASVEEGPDYCIITPPEKLNITAIDTYDDHRMAMAFSLAACADVPVTIRDPGCTRKTFPNYFDVLSTFVRN
modifications: This sequence is synthesized in lab.
B3: OsGA (protein)
chain: MAAKAEEIVLQPIREISGAVQLPGSKSLSNRILLLSALSEGTTVVDNLLNSEDVHYMLEALKALGLSVEADKVAKRAVVVGCGGKFPVEKDAKEEVQLFLGNAATAMRPLTAAVTAAGGNATYVLDGVPRMRERPIGDLVVGLKQLGADVDCFLGTECPPVRVKGIGGLPGGKVKLSGSISSQYLSALLMAAPLALGDVEIEIIDKLISIPYVEMTLRLMERFGVKAEHSDSWDRFYIKGGQKYKSPGNAYVEGDASSASYFLAGAAITGGTVTVQGCGTTSLQGDVKFAEVLEMMGAKVTWTDTSVTVTGPPREPYGKKHLKAVDVNMNKMPDVAMTLAVVALFADGPTAIRDVASWRVKETERMVAIRTELTKLGASVEEGPDYCIITPPEKLNITAIDTYDDHRMAMAFSLAACADVPVTIRDPGCTRKTFPNYFDVLSTFVRN
modifications: This sequence is synthesized in lab.
B4: OsWt: wild type rice EPSPS (SEQ ID NO:2), chloroplast transit peptide removed (protein)
chain: MAAKAEEIVLQPIREISGAVQLPGSKSLSNRILLLSALSEGTTVVDNLLNSEDVHYMLEALKALGLSVEADKVAKRAVVVGCGGKFPVEKDAKEEVQLFLGNAGTAMRPLTAAVTAAGGNATYVLDGVPRMRERPIGDLVVGLKQLGADVDCFLGTECPPVRVKGIGGLPGGKVKLSGSISSQYLSALLMAAPLALGDVEIEIIDKLISIPYVEMTLRLMERFGVKAEHSDSWDRFYIKGGQKYKSPGNAYVEGDASSASYFLAGAAITGGTVTVQGCGTTSLQGDVKFAEVLEMMGAKVTWTDTSVTVTGPPREPYGKKHLKAVDVNMNKMPDVAMTLAVVALFADGPTAIRDVASWRVKETERMVAIRTELTKLGASVEEGPDYCIITPPEKLNITAIDTYDDHRMAMAFSLAACADVPVTIRDPGCTRKTFPNYFDVLSTFVRN
modifications: This sequence is synthesized in lab.
B5: OsGAVA (protein)
chain: MAAKAEEIVLQPIREISGAVQLPGSKSLSNRILLLSALSEGTTVVDNLLNSEDVHYMLEALKALGLSVEADKVAKRAVVVGCGGKFPVEKDAKEEVQLFLGNAATAMRPLTAAVTAAGGNATYVLDGVPRMRERPIGDLVVGLKQLGADVDCFLGTECPPVRVKGIGGLPGGKVKLSGSISSQYLSALLMAAPLALGDVEIEIIDKLISIPYVEMTLRLMERFGVKAEHSDSWDRFYIKGGQKYKSPGNAYVEGDASSASYFLAGAAITGGTVTVQGCGTTSLQGDVKFAEVLEMMGAKVTWTDTSVTVTGPPREPYGKKHLKAVDVNMNKMPDAAMTLAVVALFADGPTAIRDVASWRVKETERMVAIRTELTKLGASVEEGPDYCIITPPEKLNITAIDTYDDHRMAMAFSLAACADVPVTIRDPGCTRKTFPNYFDVLSTFVRN
modifications: This sequence is synthesized in lab.
B6: OsPS (protein)
chain: MAAKAEEIVLQPIREISGAVQLPGSKSLSNRILLLSALSEGTTVVDNLLNSEDVHYMLEALKALGLSVEADKVAKRAVVVGCGGKFPVEKDAKEEVQLFLGNAGTAMRSLTAAVTAAGGNATYVLDGVPRMRERPIGDLVVGLKQLGADVDCFLGTECPPVRVKGIGGLPGGKVKLSGSISSQYLSALLMAAPLALGDVEIEIIDKLISIPYVEMTLRLMERFGVKAEHSDSWDRFYIKGGQKYKSPGNAYVEGDASSASYFLAGAAITGGTVTVQGCGTTSLQGDVKFAEVLEMMGAKVTWTDTSVTVTGPPREPYGKKHLKAVDVNMNKMPDVAMTLAVVALFADGPTAIRDVASWRVKETERMVAIRTELTKLGASVEEGPDYCIITPPEKLNITAIDTYDDHRMAMAFSLAACADVPVTIRDPGCTRKTFPNYFDVLSTFVRN
modifications: This sequence is synthesized in lab.
B7: OsTIPTVA (protein)
chain: MAAKAEEIVLQPIREISGAVQLPGSKSLSNRILLLSALSEGTTVVDNLLNSEDVHYMLEALKALGLSVEADKVAKRAVVVGCGGKFPVEKDAKEEVQLFLGNAGIAMRTLTAAVTAAGGNATYVLDGVPRMRERPIGDLVVGLKQLGADVDCFLGTECPPVRVKGIGGLPGGKVKLSGSISSQYLSALLMAAPLALGDVEIEIIDKLISIPYVEMTLRLMERFGVKAEHSDSWDRFYIKGGQKYKSPGNAYVEGDASSASYFLAGAAITGGTVTVQGCGTTSLQGDVKFAEVLEMMGAKVTWTDTSVTVTGPPREPYGKKHLKAVDVNMNKMPDAAMTLAVVALFADGPTAIRDVASWRVKETERMVAIRTELTKLGASVEEGPDYCIITPPEKLNITAIDTYDDHRMAMAFSLAACADVPVTIRDPGCTRKTFPNYFDVLSTFVRN
modifications: This sequence is synthesized in lab.
B8: OsPSVA (protein)
chain: MAAKAEEIVLQPIREISGAVQLPGSKSLSNRILLLSALSEGTTVVDNLLNSEDVHYMLEALKALGLSVEADKVAKRAVVVGCGGKFPVEKDAKEEVQLFLGNGATAMRSLTAAVTAAGGNATYVLDGVPRMRERPIGDLVVGLKQLGADVDCFLGTECPPVRVKGIGGLPGGKVKLSGSISSQYLSALLMAAPLALGDVEIEIIDKLISIPYVEMTLRLMERFGVKAEHSDSWDRFYIKGGQKYKSPGNAYVEGDASSASYFLAGAAITGGTVTVQGCGTTSLQGDVKFAEVLEMMGAKVTWTDTSVTVTGPPREPYGKKHLKAVDVNMNKMPDAAMTLAVVALFADGPTAIRDVASWRVKETERMVAIRTELTKLGASVEEGPDYCIITPPEKLNITAIDTYDDHRMAMAFSLAACADVPVTIRDPGCTRKTFPNYFDVLSTFVRN
modifications: This sequence is synthesized in lab.

How the values were obtained:
E. coli lacking EPSPS [1] = experiment: Resistance identification of flax EPSPS mutants LuGPV, LuTIPT, LuTIPTVA (FIG. 5, FIG. 6); assay type: cell-based
Excerpt: The G172 position and P177 position of LuVA were mutated into A and S at the same time by PCR, and a 3-point mutant LuGPV was obtained.
The T173 and P177 positions of LuWT were simultaneously mutated to I and T by PCR, and a […] mutant LuTIPT was obtained.
The T173 and P177 positions of LuVA were simultaneously mutated to I and T by PCR, and a 3-point mutant LuTIPTVA was obtained.
(§1) a) PCR system: According to the primer and template mixed PCR system corresponding to the target vector in the above table, the forward primer was 1.25 μl, the reverse primer was 1.25 μl, the template plasmid was 2 μl, the Q5 PCR master mix was 12.5 μl, and ddH2O was […].
b) PCR reaction conditions were as follows: the annealing temperature was set according to the annealing temperature corresponding to the target carrier in the above table.
(§2) c) Took out 5 μl of the obtained PCR product and added it to the loading buffer for agarose gel electrophoresis. A band with a size of about 4.5 kb was considered successful.
(§3) d) Used NEB's KLD enzyme mixture to remove the template and connected the PCR product. The connection system was 5 μl KLD buffer, 1 μl KLD MIX, 1 μl PCR product, and ddH2O 3 μl. After ligating at room temperature for 5 min, transformed it into E. coli.
(§4) e) The ligation product was transformed into Dh5a competent E. coli lacking EPSPS. After resuscitation, the cells were washed twice with M9 medium, and then the washed cells were spread on M9 medium and cultured for 48 h. Sequenced the grown single colony (Tsingke Biological Technology Co., Ltd.), and selected the correct mutant to save for future use.
The resistance results were shown in FIG. 5: LuWt(SEQ ID NO:26) represents the EPSPS2 gene of flax, LuGPV (SEQ ID NO:30) represents the flax G172A+P177S+V403A three-point mutant. The resistance results were shown in FIG. 6: LuTIPT (SEQ ID NO:28) was the flax T173I+[…] double-point mutants, LuTIPTVA (SEQ ID NO:29) was flax T173I+P177T+V403A three-point mutants.

E. coli lacking EPSPS [2] = experiment: Glyphosate resistance comparison among rice EPSPS mutants: growth of transformed E. coli on M9 medium with different glyphosate concentrations; assay type: cell-based, Escherichia coli; conditions: M9 medium; for glyphosate concentration of the medium on which the strain can grow: tested 0, 0.5, 2, 4, 5, 25, 75, 100 mM glyphosate, FIG. 2, FIG. 3
Protocol: as §1
b) PCR reaction conditions were as following: the annealing temperature was set according to the annealing temperature corresponding to the target carrier in the above table.
as §2, §3, §4
OsWt represents the wild type rice EPSPS(SEQ ID NO:2). […] OsGA represents the mutated rice EPSPS with mutation G172A. (SEQ ID NO:7) OsPS represents the mutated rice EPSPS with mutation P177S. (SEQ ID NO:8) OsGAPS represents the mutated rice EPSPS with mutation G172A and P177S. (SEQ ID NO:9) OsGAVA represents the mutated rice EPSPS with mutation G172A and V403A(SEQ ID NO:4). OsPSVA represents the mutated rice EPSPS with mutation P177S and V403A(SEQ ID NO:5). OsGPV represents the mutated rice EPSPS with mutation G172A, P177S and V403A(SEQ ID NO:6). OsTIPS represents the mutated rice EPSPS with mutation T173I and P177S. (SEQ ID NO: 35). OsTIPT represents the mutated rice EPSPS with mutation T173I and P177T. (SEQ ID NO:36). OsTIPSVA represents the mutated rice EPSPS with mutation T173I, P177S and V403A. (SEQ ID NO:37). OsTIPTVA represents the mutated rice EPSPS with mutation T173I, P177T and V403A. (SEQ ID NO:38). CP4 represents the wild type EPSPS from Agrobacterium tumefaciens. (SEQ ID NO:39)
Each product obtained from the above steps were transformed into E. coli lacking EPSPS. By detecting the growth of the transformed Escherichia coli on M9 medium containing different glyphosate concentrations (0 mM, 0.5 mM, 2 mM, 4 mM, 5 mM, 25 mM, 75 mM, 100 mM), the 1 mM glyphosate here was equivalent to […] glyphosate acid, the glyphosate resistance of rice EPSPS mutants was verified.

Molecule	growth on 0.5 mM glyphosate medium (E. coli lacking EPSPS [2])	glyphosate concentration of the medium on which the strain can grow (E. coli lacking EPSPS [2])	other results
B1	–	–	resistance compared with CP4 (colony saturation) (E. coli lacking EPSPS [1]; 100 mM glyphosate pressure): higher than CP4; glyphosate resistance (E. coli lacking EPSPS [1]; flax EPSPS mutant in E. coli, FIG. 5): strong glyphosate resistance
B2	–	–	growth on medium containing 0 mM glyphosate (E. coli lacking EPSPS [2]; 0 mM glyphosate, complementation of E. coli EPSPS function): cannot grow
B3	can grow	–	–
B4	cannot grow	–	–
B5	–	≤ 75 mM	–
B6	can grow	–	–
B7	–	100 mM and 75 mM	–
B8	–	≤ 4 mM	–
